Target: the molecule itself
Assay: non-reducing SDS-PAGE of whole cell extracts of transfected HEK293T cells

B1: CPG15-2 (other)
chain: SEGPNRCDTIYQGFAECLIRLGDGMGRGGELQTVCRSWNDFHACASRVLSGCPEEAAAVWESLQQEARRAPHPDNLHILCGAPVSVRERIAGPETNQETLRATA
notes: also called mouse CPG15-2
Does B1 bind?
Result: binds
